Measurements: patent publication US20180128830A1, “DETECTION OF HUMAN CYTOMEGALOVIRUS IN BREAST CANCER” (priority 2015, published 2018)

Assays:
MDA-MB-231 cells [1] = experiment: Apoptosis, Annexin V-FITC flow cytometry; assay type: cell-based, human; details: 100 μM etoposide, 48 hrs
Description: (§1) Cells were seeded into 96-well dishes at a density of 1×10^4 cell per well in complete medium with varying doses of cmvIL-10, and then cell viability measured at the indicated time points using the Cell Titer Glo Assay kit according to manufacturer's instructions (Promega). DNA synthesis was measured in cells prepared in the same way using the BrdU Cell Proliferation ELISA Kit (Roche, Basel, Switzerland). For experiments using inhibitors, cells were cultivated in 96-well dishes as above with a final concentration of 10 μM inhibitor and BrdU incorporation evaluated after 72 hrs. For cell counts, cells were seeded into 6-well plates at a density of 2×10^5 cells per well, harvested via trypsinization, and counted using a hemacytometer at the indicated time points. The TACS Annexin V-FITC Detection Kit (Trevigen, Gaithersburg, Md.) was used to stain cells harvested from 70% confluent T75 flasks that had been treated with 100 μM etoposide for 48 hrs in the presence or absence of 100 ng/ml cmvIL-10. Cells were then analyzed via flow cytometry to detect fluorescence. For viability assays, Cell Titer Glo reagent was utilized to quantify cells that had been seeded into 96-well dishes at a density of 1×10^4 cell per well in complete medium with varying doses of etoposide in the presence or absence of 100 ng/ml cmvIL-10 as indicated

CXCR4 = target: T1, CXCR4 (Homo sapiens, UniProt P61073); experiment: Calcium flux assay in HEK293 cells; assay type: cell-based; details: CXCL12 0.1 μg/ml alone
T1 construct: HEK293 cells, which endogenously express both CXCR4 and IL-10R; endogenous in cells; host or cells: HEK293
T1 sequence (P61073 whole entry): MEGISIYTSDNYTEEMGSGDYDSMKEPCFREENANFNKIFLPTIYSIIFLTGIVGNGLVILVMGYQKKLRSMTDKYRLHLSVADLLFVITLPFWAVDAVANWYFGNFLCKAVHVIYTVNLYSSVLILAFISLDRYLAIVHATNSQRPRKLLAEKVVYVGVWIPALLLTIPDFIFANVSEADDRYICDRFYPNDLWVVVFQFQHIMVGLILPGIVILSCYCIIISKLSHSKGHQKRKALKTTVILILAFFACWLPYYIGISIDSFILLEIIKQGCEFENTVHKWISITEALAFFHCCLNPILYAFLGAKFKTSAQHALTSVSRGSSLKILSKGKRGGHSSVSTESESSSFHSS
Description: Calcium flux assays were performed as described (Arnolds K L, et al. Virology 439:122-131.). Briefly, cells were resuspended in 2 mls calcium assay buffer (RPMI with 25 mM of HEPES) at a density of 5×10^5 cells/ml per sample. Each sample was labeled with 2 μl of Fluo-4AM (Invitrogen, Grand Island, N.Y.), wrapped in foil, at 37° C. for 30 minutes with agitation at 10-minute intervals. Following incubation, each sample was pelleted, resuspended in calcium assay buffer, and transferred into an eppendorf tube for flow cytometry using the BD C6 Accuri. Fluorescence intensity of each sample was measured for 20 seconds to establish baseline, then stimulus (CXCL12, in the presence or absence of cmvIL-10, as indicated) was added via micropipetting directly into the sample while fluorescence intensity was measured. Kinetic fluorescence intensity analysis was performed with FlowJo software v9.4.9 (FlowJo, Ashland, Oreg.). Purified recombinant cmvIL-10 was purchased from R&D Systems (Minneapolis, Minn.) and purified recombinant CXCL12 was purchased from Peprotech (Rocky Hill, N.J.). For each calcium flux assay, ionomycin (Sigma) was a positive control for Fluo-4AM loading and PBS served as a negative control for the addition of stimulus.

HEK293 cells = experiment: Transwell migration toward CXCL12; assay type: cell-based, human; details: 4 hours, 5.0 μm filter
Description: Transwell migration assays were performed by suspending cells at a density of 5×10^4 cells/ml in migration media (MEM or RPMI […] media plus 0.5% FBS). A total of 75 μl of cells was placed onto the upper chamber of a 96-well transwell system with 5.0 μm pores (Corning-Costar, Corning, N.Y.). The lower chamber contained 235 μl of migration media with CXCL12 plus or minus cmvIL-10 as indicated. Plates were incubated for four hours at 37° C., and then cells that traversed through the filter into the lower chamber were quantified via the addition of CellTitre-Glo reagent (Promega, Madison, Wis.) according to manufacturer's instructions.

MDA-MB-231 cells [2] = experiment: DNA synthesis, BrdU Cell Proliferation ELISA; assay type: cell-based, human; details: 10 ng/ml of each cytokine, 72 hrs
Description: as §1

Stat3 = experiment: Western blot for Stat3 phosphorylation in MDA-MB-231 cells; assay type: cell-based, human; details: 100 ng/ml, 15 min
Description: (§2) For western blotting, cells were treated with 100 ng/ml cmvIL-10, hIL-10, IFNγ or PBS for 15 min, then harvested into cell lysis buffer (150 mM NaCl, 20 mM HEPES, 0.5% Triton-X-100, 1 mM NaOV4, 1 mM EDTA, 0.1% NaN3). Lysates were clarified, proteins were separated via SDS-PAGE, and then transferred to a nitrocellulose membrane. Then membrane was incubated in blocking solution (5% milk+1×TBS-T) for 1 hr, then probed with primary antibody at a 1:1000 dilution (total Stat3 or pStat3, total Stat1 or pStat1) in blocking solution overnight at 4° C. After washing, the membranes were incubated with a 1:2000 dilution of appropriate AP-conjugated secondary antibody and bands were detected using Western Blue stabilized AP substrate (Promega, Madison, Wis.). For analysis of secreted proteins, supernatants were collected at various time points, analyzed by SDS-PAGE and then immunoblotted as above for cmvIL-10, hIL-10, or serpin E1/PAI.

Stat1 = experiment: Western blot for Stat1 phosphorylation in MDA-MB-231 cells; assay type: cell-based, human; details: 100 ng/ml, 15 min
Description: as §2

**Q.** Which “cells stained positive for Annexin V” value (MDA-MB-231 cells [1]) does the source give for `COc1cc([C@@H]2c3cc4c(cc3[C@@H](O[C@@H]3O[C@@H]5CO[C@@H](C)O[C@H]5[C@H](O)[C@H]3O)[C@H]3COC(=O)[C@H]23)OCO4)cc(OC)c1O` [etoposide, reference compound] here?
**A.** Its value is 30.9%.

**Q.** “CXCL12: purified recombinant CXCL12 chemokine from Peprotech” was tested. Which “calcium mobilization (fluorescence)” value (CXCR4) did it give?
**A.** Its value is “rapid but transient increase in fluorescence”.

**Q.** And the “CXCL12 dose giving maximal migration” value (HEK293 cells)?
**A.** The value was 0.1 ng/mL.

**Q.** With “IL-6: purified recombinant IL-6 from R&D Systems” as the molecule, how does the “cell proliferation (BrdU incorporation)” value (MDA-MB-231 cells [2]) read?
**A.** The value was “inhibited cell growth”.

B1: IFNγ: purified recombinant interferon-gamma from R&D Systems (protein, UniProt P01579 24-161, looked up)
Interferon gamma: QDPYVKEAENLKKYFNAGHSDVADNGTLFLGILKNWKEESDRKIMQSQIVSFYFKLFKNFKDDQSIQKSVETIKEDMNVKFFNSNKKKRDDFEKLTNYSVTDLNVQRKAIHELIQVMAELSPAAKTGKRKRSQMLFRG
**Q.** With B1 as the molecule, how does the “cell proliferation (BrdU incorporation)” value (MDA-MB-231 cells [2]) read?
**A.** The value was “inhibited cell growth”.

**Q.** And the “83 kD band of phosphorylated Stat3 (pStat3)” value (Stat3)?
**A.** Its value is “not”.

**Q.** And the Stat1 phosphorylation (Stat1)?
**A.** Its Stat1 phosphorylation is “phosphorylated in response to IFNγ treatment only”.
